Target: PCNA (Homo sapiens, UniProt P12004)
Assay: enzyme activity assay

Chain of PCNA (P12004 whole entry): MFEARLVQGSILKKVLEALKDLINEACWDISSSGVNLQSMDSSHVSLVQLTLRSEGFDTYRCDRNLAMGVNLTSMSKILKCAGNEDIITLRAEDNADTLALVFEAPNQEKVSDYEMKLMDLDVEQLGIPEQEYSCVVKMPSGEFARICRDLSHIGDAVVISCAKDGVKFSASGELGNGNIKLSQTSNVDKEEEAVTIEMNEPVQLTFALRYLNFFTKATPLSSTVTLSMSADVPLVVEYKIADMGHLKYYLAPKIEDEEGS

Kd [nM]	Binder
73	DNA polymerase delta core (protein) chain 1: MDGKRRPGPGPGVPPKRARGGLWDDDDAPRPSQFEEDLALMEEMEAEHRLQEQEEEELQSVLEGVADGQVPPSAIDPRWLRPTPPALDPQTEPLIFQQLEIDHYVGPAQPVPGGPPPSRGSVPVLRAFGVTDEGFSVCCHIHGFAPYFYTPAPPGFGPEHMGDLQRELNLAISRDSRGGRELTGPAVLAVELCSRESMFGYHGHGPSPFLRITVALPRLVAPARRLLEQGIRVAGLGTPSFAPYEANVDFEIRFMVDTDIVGCNWLELPAGKYALRLKEKATQCQLEADVLWSDVVSHPPEGPWQRIAPLRVLSFDIECAGRKGIFPEPERDPVIQICSLGLRWGEPEPFLRLALTLRPCAPILGAKVQSYEKEEDLLQAWSTFIRIMDPDVITGYNIQNFDLPYLISRAQTLKVQTFPFLGRVAGLCSNIRDSSFQSKQTGRRDTKVVSMVGRVQMDMLQVLLREYKLRSYTLNAVSFHFLGEQKEDVQHSIITDLQNGNDQTRRRLAVYCLKDAYLPLRLLERLMVLVNAVEMARVTGVPLSYLLSRGQQVKVVSQLLRQAMHEGLLMPVVKSEGGEDYTGATVIEPLKGYYDVPIATLDFSSLYPSIMMAHNLCYTTLLRPGTAQKLGLTEDQFIRTPTGDEFVKTSVRKGLLPQILENLLSARKRAKAELAKETDPLRRQVLDGRQLALKVSANSVYGFTGAQVGKLPCLEISQSVTGFGRQMIEKTKQLVESKYTVENGYSTSAKVVYGDTDSVMCRFGVSSVAEAMALGREAADWVSGHFPSPIRLEFEKVYFPYLLISKKRYAGLLFSSRPDAHDRMDCKGLEAVRRDNCPLVANLVTASLRRLLIDRDPEGAVAHAQDVISDLLCNRIDISQLVITKELTRAASDYAGKQAHVELAERMRKRDPGSAPSLGDRVPYVIISAAKGVAAYMKSEDPLFVLEHSLPIDTQYYLEQQLAKPLLRIFEPILGEGRAEAVLLRGDHTRCKTVLTGKVGGLLAFAKRRNCCIGCRTVLSHQGAVCEFCQPRESELYQKEVSHLNALEERFSRLWTQCQRCQGSLHEDVICTSRDCPIFYMRKKVRKDLEDQEQLLRRFGPPGPEAW chain 2: not shown
8.7	DNA polymerase delta core+p12 (protein) chain 1: MDGKRRPGPGPGVPPKRARGGLWDDDDAPRPSQFEEDLALMEEMEAEHRLQEQEEEELQSVLEGVADGQVPPSAIDPRWLRPTPPALDPQTEPLIFQQLEIDHYVGPAQPVPGGPPPSRGSVPVLRAFGVTDEGFSVCCHIHGFAPYFYTPAPPGFGPEHMGDLQRELNLAISRDSRGGRELTGPAVLAVELCSRESMFGYHGHGPSPFLRITVALPRLVAPARRLLEQGIRVAGLGTPSFAPYEANVDFEIRFMVDTDIVGCNWLELPAGKYALRLKEKATQCQLEADVLWSDVVSHPPEGPWQRIAPLRVLSFDIECAGRKGIFPEPERDPVIQICSLGLRWGEPEPFLRLALTLRPCAPILGAKVQSYEKEEDLLQAWSTFIRIMDPDVITGYNIQNFDLPYLISRAQTLKVQTFPFLGRVAGLCSNIRDSSFQSKQTGRRDTKVVSMVGRVQMDMLQVLLREYKLRSYTLNAVSFHFLGEQKEDVQHSIITDLQNGNDQTRRRLAVYCLKDAYLPLRLLERLMVLVNAVEMARVTGVPLSYLLSRGQQVKVVSQLLRQAMHEGLLMPVVKSEGGEDYTGATVIEPLKGYYDVPIATLDFSSLYPSIMMAHNLCYTTLLRPGTAQKLGLTEDQFIRTPTGDEFVKTSVRKGLLPQILENLLSARKRAKAELAKETDPLRRQVLDGRQLALKVSANSVYGFTGAQVGKLPCLEISQSVTGFGRQMIEKTKQLVESKYTVENGYSTSAKVVYGDTDSVMCRFGVSSVAEAMALGREAADWVSGHFPSPIRLEFEKVYFPYLLISKKRYAGLLFSSRPDAHDRMDCKGLEAVRRDNCPLVANLVTASLRRLLIDRDPEGAVAHAQDVISDLLCNRIDISQLVITKELTRAASDYAGKQAHVELAERMRKRDPGSAPSLGDRVPYVIISAAKGVAAYMKSEDPLFVLEHSLPIDTQYYLEQQLAKPLLRIFEPILGEGRAEAVLLRGDHTRCKTVLTGKVGGLLAFAKRRNCCIGCRTVLSHQGAVCEFCQPRESELYQKEVSHLNALEERFSRLWTQCQRCQGSLHEDVICTSRDCPIFYMRKKVRKDLEDQEQLLRRFGPPGPEAW chain 2: not shown chain 3: MGRKRLITDSYPVVKRREGPAGHSKGELAPELGEEPQPRDEEEAELELLRQFDLAWQYGPCTGITRLQRWCRAKQMGLEPPPEVWQVLKTHPGDPRFQCSLWHLYPL
